Results published in article PMC5618021.
pEC50, pKd: −log10 of the molar value.

How the values were obtained:
[1] = target: MERS-five-helix bundle (MERS-5HB) (MERS-CoV) (UniProt K0BRG7); assay: ELISA
MERS-HR2P (MERS-CoV) [2] = assay: BLI
MERS-HR2P (MERS-CoV) [3] = assay: ELISA

| Substance | pEC50 [1] | pKd (MERS-HR2P (MERS-CoV) [2]) | koff (MERS-HR2P (MERS-CoV) [2]) [s⁻¹] | kon (MERS-HR2P (MERS-CoV) [2]) [M⁻¹ s⁻¹] | pEC50 (MERS-HR2P (MERS-CoV) [3]) |
| --- | --- | --- | --- | --- | --- |
| MERS-HR2P (peptide) | 7.50 |  |  |  |  |
| MERS-five-helix bundle (MERS-5HB) (from UniProt K0BRG7) (designed binder) |  | 9.62 | 1.26e-05 | 52600 | 8.27 |
